Assay [1] addresses T1, wild-type CBP80 expressed alone in insect cells (human, UniProt Q09161 1-790).
T1 sequence: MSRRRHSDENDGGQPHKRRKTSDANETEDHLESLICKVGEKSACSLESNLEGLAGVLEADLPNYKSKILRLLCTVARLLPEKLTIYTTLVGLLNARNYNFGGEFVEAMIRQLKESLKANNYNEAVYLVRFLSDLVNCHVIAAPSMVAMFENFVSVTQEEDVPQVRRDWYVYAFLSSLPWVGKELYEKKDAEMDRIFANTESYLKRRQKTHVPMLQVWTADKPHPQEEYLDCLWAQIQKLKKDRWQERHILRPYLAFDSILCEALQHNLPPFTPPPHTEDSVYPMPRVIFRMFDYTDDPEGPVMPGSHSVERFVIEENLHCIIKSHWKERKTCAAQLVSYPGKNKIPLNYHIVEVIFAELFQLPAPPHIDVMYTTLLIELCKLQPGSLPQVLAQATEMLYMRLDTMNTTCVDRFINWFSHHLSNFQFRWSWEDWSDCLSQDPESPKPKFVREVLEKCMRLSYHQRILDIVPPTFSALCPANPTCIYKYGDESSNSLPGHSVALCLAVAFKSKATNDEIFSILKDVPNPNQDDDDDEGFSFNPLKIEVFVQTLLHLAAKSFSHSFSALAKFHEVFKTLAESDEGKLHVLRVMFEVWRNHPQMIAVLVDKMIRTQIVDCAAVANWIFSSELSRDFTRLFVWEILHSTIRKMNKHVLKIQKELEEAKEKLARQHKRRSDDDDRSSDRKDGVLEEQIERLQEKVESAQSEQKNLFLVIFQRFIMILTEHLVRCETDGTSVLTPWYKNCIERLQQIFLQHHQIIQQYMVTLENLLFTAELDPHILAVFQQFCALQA
The assay is described as follows: pull-down.

In assay [2] the target is T2, full-length human importin-β1 (human, UniProt Q14974 1-876). The assay is described as follows: native gel or EMSA. In general terms: A gel shift assay detects complexes by their altered migration in electrophoresis.
T2 sequence (Q14974 whole entry): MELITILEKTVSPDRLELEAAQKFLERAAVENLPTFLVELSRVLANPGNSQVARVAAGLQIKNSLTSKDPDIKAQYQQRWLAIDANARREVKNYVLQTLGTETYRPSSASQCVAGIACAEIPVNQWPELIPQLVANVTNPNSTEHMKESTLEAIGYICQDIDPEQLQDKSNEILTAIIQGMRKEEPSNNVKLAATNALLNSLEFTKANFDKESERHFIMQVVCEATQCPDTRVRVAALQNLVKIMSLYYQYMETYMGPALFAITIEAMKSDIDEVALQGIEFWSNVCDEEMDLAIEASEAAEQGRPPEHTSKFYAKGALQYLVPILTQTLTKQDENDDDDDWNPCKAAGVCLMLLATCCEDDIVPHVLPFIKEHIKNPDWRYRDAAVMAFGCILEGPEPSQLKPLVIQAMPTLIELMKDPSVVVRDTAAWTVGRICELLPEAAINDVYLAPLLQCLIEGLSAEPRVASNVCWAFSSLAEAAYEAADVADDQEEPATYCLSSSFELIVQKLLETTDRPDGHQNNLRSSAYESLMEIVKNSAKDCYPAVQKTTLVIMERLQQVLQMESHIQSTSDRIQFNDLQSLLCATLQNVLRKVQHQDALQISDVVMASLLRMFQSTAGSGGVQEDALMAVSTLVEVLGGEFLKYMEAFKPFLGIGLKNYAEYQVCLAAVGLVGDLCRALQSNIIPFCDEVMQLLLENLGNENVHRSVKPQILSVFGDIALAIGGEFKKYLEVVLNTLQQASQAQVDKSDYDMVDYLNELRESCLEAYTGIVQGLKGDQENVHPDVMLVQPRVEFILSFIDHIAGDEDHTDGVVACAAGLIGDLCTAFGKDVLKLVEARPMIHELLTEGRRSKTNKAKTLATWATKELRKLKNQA
Assay [3] concerns the target T2, full-length human importin-β1. Kind of assay: pull-down.
The target in assay [4] is T3, full-length human importin-α isoform 1 (karyopherin-α2) (human, UniProt P52292 1-529). Kind of assay: pull-down.
Assay [5] concerns the target T3, full-length human importin-α isoform 1 …. The assay is described as follows: SEC. In general terms: SEC sorts molecules by how far they enter the pores of the column.

B1: His-tagged CBP20 Δ1–14Δ126–156 (domain or fragment)
chain: VELSQYRDQHFRGDNEEQEKLLKKSCTLYVGNLSFYTTEEQIYELFSKSGDIKKIIMGLDKMKKTACGFCFVEYYSRADAENAMRYINGTRLDDRIIRTDWDAGFKEGRQY
In the case of B1, the binding result in assay [1] was “binds”.

B2: CBP20 Δ126–156 (domain or fragment)
chain: MSGGLLKALRSDSYVELSQYRDQHFRGDNEEQEKLLKKSCTLYVGNLSFYTTEEQIYELFSKSGDIKKIIMGLDKMKKTACGFCFVEYYSRADAENAMRYINGTRLDDRIIRTDWDAGFKEGRQY
On to B2, for which, in assay [2], the binding result is recorded as “binds”.

B3: His-tagged CBP20 Δ126–156 (domain or fragment)
chain: MSGGLLKALRSDSYVELSQYRDQHFRGDNEEQEKLLKKSCTLYVGNLSFYTTEEQIYELFSKSGDIKKIIMGLDKMKKTACGFCFVEYYSRADAENAMRYINGTRLDDRIIRTDWDAGFKEGRQY
Regarding B3, the binding result in assay [1] is “binds”.

B4: His-tagged full-length CBP20 (natural protein)
chain: MSGGLLKALRSDSYVELSQYRDQHFRGDNEEQEKLLKKSCTLYVGNLSFYTTEEQIYELFSKSGDIKKIIMGLDKMKKTACGFCFVEYYSRADAENAMRYINGTRLDDRIIRTDWDAGFKEGRQYGRGRSGGQVRDEYRQDYDAGRGGYGKLAQNQ
With B4, the binding result in assay [1] and in assay [3] was “binds” throughout.

B5: full-length CBP20 (natural protein)
chain: MSGGLLKALRSDSYVELSQYRDQHFRGDNEEQEKLLKKSCTLYVGNLSFYTTEEQIYELFSKSGDIKKIIMGLDKMKKTACGFCFVEYYSRADAENAMRYINGTRLDDRIIRTDWDAGFKEGRQYGRGRSGGQVRDEYRQDYDAGRGGYGKLAQNQ
As for B5, the binding result in assay [2] is on record as “binds”.

B6: apo-CBC reconstituted from His-tagged CBP20 and CBP80 (complex)
chain 1: MSGGLLKALRSDSYVELSQYRDQHFRGDNEEQEKLLKKSCTLYVGNLSFYTTEEQIYELFSKSGDIKKIIMGLDKMKKTACGFCFVEYYSRADAENAMRYINGTRLDDRIIRTDWDAGFKEGRQYGRGRSGGQVRDEYRQDYDAGRGGYGKLAQNQ
chain 2: MSRRRHSDENDGGQPHKRRKTSDANETEDHLESLICKVGEKSACSLESNLEGLAGVLEADLPNYKSKILRLLCTVARLLPEKLTIYTTLVGLLNARNYNFGGEFVEAMIRQLKESLKANNYNEAVYLVRFLSDLVNCHVIAAPSMVAMFENFVSVTQEEDVPQVRRDWYVYAFLSSLPWVGKELYEKKDAEMDRIFANTESYLKRRQKTHVPMLQVWTADKPHPQEEYLDCLWAQIQKLKKDRWQERHILRPYLAFDSILCEALQHNLPPFTPPPHTEDSVYPMPRVIFRMFDYTDDPEGPVMPGSHSVERFVIEENLHCIIKSHWKERKTCAAQLVSYPGKNKIPLNYHIVEVIFAELFQLPAPPHIDVMYTTLLIELCKLQPGSLPQVLAQATEMLYMRLDTMNTTCVDRFINWFSHHLSNFQFRWSWEDWSDCLSQDPESPKPKFVREVLEKCMRLSYHQRILDIVPPTFSALCPANPTCIYKYGDESSNSLPGHSVALCLAVAFKSKATNDEIFSILKDVPNPNQDDDDDEGFSFNPLKIEVFVQTLLHLAAKSFSHSFSALAKFHEVFKTLAESDEGKLHVLRVMFEVWRNHPQMIAVLVDKMIRTQIVDCAAVANWIFSSELSRDFTRLFVWEILHSTIRKMNKHVLKIQKELEEAKEKLARQHKRRSDDDDRSSDRKDGVLEEQIERLQEKVESAQSEQKNLFLVIFQRFIMILTEHLVRCETDGTSVLTPWYKNCIERLQQIFLQHHQIIQQYMVTLENLLFTAELDPHILAVFQQFCALQA
Regarding B6, the binding result in assay [4] is recorded as “binds”.

B7: human nuclear cap-binding complex (CBC), CBP20 and CBP80 co-expressed (complex)
chain 1: MSRRRHSDENDGGQPHKRRKTSDANETEDHLESLICKVGEKSACSLESNLEGLAGVLEADLPNYKSKILRLLCTVARLLPEKLTIYTTLVGLLNARNYNFGGEFVEAMIRQLKESLKANNYNEAVYLVRFLSDLVNCHVIAAPSMVAMFENFVSVTQEEDVPQVRRDWYVYAFLSSLPWVGKELYEKKDAEMDRIFANTESYLKRRQKTHVPMLQVWTADKPHPQEEYLDCLWAQIQKLKKDRWQERHILRPYLAFDSILCEALQHNLPPFTPPPHTEDSVYPMPRVIFRMFDYTDDPEGPVMPGSHSVERFVIEENLHCIIKSHWKERKTCAAQLVSYPGKNKIPLNYHIVEVIFAELFQLPAPPHIDVMYTTLLIELCKLQPGSLPQVLAQATEMLYMRLDTMNTTCVDRFINWFSHHLSNFQFRWSWEDWSDCLSQDPESPKPKFVREVLEKCMRLSYHQRILDIVPPTFSALCPANPTCIYKYGDESSNSLPGHSVALCLAVAFKSKATNDEIFSILKDVPNPNQDDDDDEGFSFNPLKIEVFVQTLLHLAAKSFSHSFSALAKFHEVFKTLAESDEGKLHVLRVMFEVWRNHPQMIAVLVDKMIRTQIVDCAAVANWIFSSELSRDFTRLFVWEILHSTIRKMNKHVLKIQKELEEAKEKLARQHKRRSDDDDRSSDRKDGVLEEQIERLQEKVESAQSEQKNLFLVIFQRFIMILTEHLVRCETDGTSVLTPWYKNCIERLQQIFLQHHQIIQQYMVTLENLLFTAELDPHILAVFQQFCALQA
chain 2: MSGGLLKALRSDSYVELSQYRDQHFRGDNEEQEKLLKKSCTLYVGNLSFYTTEEQIYELFSKSGDIKKIIMGLDKMKKTACGFCFVEYYSRADAENAMRYINGTRLDDRIIRTDWDAGFKEGRQYGRGRSGGQVRDEYRQDYDAGRGGYGKLAQNQ
Regarding B7, the binding result in assay [5] was “binds”.

B8: His-tagged CBP20 Δ1–14 (domain or fragment)
chain: VELSQYRDQHFRGDNEEQEKLLKKSCTLYVGNLSFYTTEEQIYELFSKSGDIKKIIMGLDKMKKTACGFCFVEYYSRADAENAMRYINGTRLDDRIIRTDWDAGFKEGRQYGRGRSGGQVRDEYRQDYDAGRGGYGKLAQNQ
Consider B8, for which, in assay [1], the binding result was “binds”.

B9: CBP20 Δ1–14 (domain or fragment)
chain: VELSQYRDQHFRGDNEEQEKLLKKSCTLYVGNLSFYTTEEQIYELFSKSGDIKKIIMGLDKMKKTACGFCFVEYYSRADAENAMRYINGTRLDDRIIRTDWDAGFKEGRQYGRGRSGGQVRDEYRQDYDAGRGGYGKLAQNQ
B9: in assay [2], the binding result is reported as “binds”.

The values above are taken from paper PMC2782468 (Nature structural & molecular biology, 2009).
